Experimental data as given in the supplement of paper PMC7125110.
± gives the standard error. For some assays here: Fewer inactive variants are shown than the library holds.

B1: glmS ribozyme (parent)
chain: AUAAAAGCGCCAGAACUACAGAAAUGUAGUUGACGAGGAGGAGGUUUAUCGAAUUUUCGGCGGAUGCCUCCAAA

Key:
Conditions in all cases: with glucosamine-6-phosphate
[1] = variants of: B1; test: kcat; higher = faster cleavage; RNA array
In short: (§1)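 Sequenced MiSeq chips were the platform: E. coli RNA polymerase transcribed barcoded ribozyme variants on them in situ, and a hybridised Cy3 probe tracked these at 37 °C. After glucosamine-6-phosphate (40 μM to 10 mM) in HEPES/KCl/Mg(OAc)2 buffer was flowed in, tiles were imaged over ~14 h. Signals normalised to baseline and to non-cleaving reference variants were reduced to per-tile medians and fit to one- or two-exponential decays to obtain kobs. kcat and KM were derived through weighted Michaelis–Menten fits across concentrations.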

[2] = variants of: B1; test: KM; higher = weaker cofactor use; RNA array
In short: as §1

[3] = variants of: B1; test: self-cleavage kobs at 40 uM GlcN6P; higher = faster cleavage; RNA array
In short: as §1

[4] = variants of: B1; test: self-cleavage kobs at 160 uM GlcN6P; higher = faster cleavage; RNA array
In short: as §1

[5] = variants of: B1; test: self-cleavage kobs at 640 uM GlcN6P; higher = faster cleavage; RNA array
In short: as §1

[6] = variants of: B1; test: self-cleavage kobs at 2500 uM GlcN6P; higher = faster cleavage; RNA array
In short: as §1

[7] = variants of: B1; test: self-cleavage kobs at 10000 uM GlcN6P; higher = faster cleavage; RNA array
In short: as §1

Variant	kcat [1] [s⁻¹]	KM [2] [µM]	self-cleavage kobs at 40 uM GlcN6P [3] [s⁻¹]	self-cleavage kobs at 160 uM GlcN6P [4] [s⁻¹]	self-cleavage kobs at 640 uM GlcN6P [5] [s⁻¹]	self-cleavage kobs at 2500 uM GlcN6P [6] [s⁻¹]	self-cleavage kobs at 10000 uM GlcN6P [7] [s⁻¹]
A39U U47A	0.0219 ± 0.0045	3320 ± 900	0.000309 ± 3.8e-05	0.000791 ± 0.00013	0.00397 ± 0.00055	0.00871 ± 0.0017	0.0166 ± 0.002
A15U U54G U65G	0.000547 ± 5.8e-05	1670 ± 300			0.000149 ± 2.4e-05	0.00039 ± 0.00013	0.00045 ± 0.00011
C10A G38A	< 1e-05		< 1e-05				
G38C C70A	1.54e-05 ± 2.7e-06						
C11A A15G C16A G29U	0.000222 ± 4.3e-05	2210 ± 1100			6.91e-05 ± 2.4e-05	0.000102 ± 2.4e-05	0.000192 ± 3.5e-05
U45A C50U	0.000477 ± 0.00018					3.25e-05 ± 1.4e-05	0.000107 ± 1.3e-05
U49A A53G	2.25e-05 ± 2.1e-06	3410 ± 1000					
G32A U57A	3.77e-05 ± 3.1e-06	3000 ± 970		< 1e-05			2.89e-05 ± 9.1e-06
A12C C16U	0.0121 ± 0.005		0.000543 ± 4.7e-05	0.001 ± 0.00018	0.00435 ± 0.00065	0.0065 ± 0.0011	0.016 ± 0.0022
C16U U69A	0.000112 ± 2.4e-05		7.08e-05 ± 2e-05	6.03e-05 ± 2e-05	9.39e-05 ± 3.7e-05	0.00022 ± 6.1e-05	0.000115 ± 2e-05
A12G A64C	< 1e-05		< 1e-05				
C50A C70U	3.03e-05 ± 6.5e-06				2.82e-05 ± 9.4e-06	3.95e-05 ± 6.5e-06	1.9e-05 ± 7e-06
U49A C70U	2.22e-05 ± 1.1e-05					3.89e-05 ± 1.9e-05	
U30G C50U	< 1e-05			< 1e-05			
U46A A64G	0.00469 ± 0.0011	2700 ± 990	0.000102 ± 2.3e-05		0.000754 ± 0.00015	0.00242 ± 0.00047	0.00373 ± 0.00065
A6C U47C	1.02e-05 ± 2.4e-07	526 ± 77		< 1e-05			
C34A G38C	< 1e-05				< 1e-05		
U30A G59A	3.04e-05 ± 2.1e-06	2080 ± 490	< 1e-05				2.5e-05 ± 1.2e-05
U49G C67U	0.000381 ± 5.6e-05	2520 ± 770			7.24e-05 ± 1.9e-05	0.000257 ± 6.4e-05	0.000292 ± 4.6e-05
